Article PMC8466066, “Searching for Biological Function of the Mysterious PA2504 Protein from Pseudomonas aeruginosa” (International Journal of Molecular Sciences, 2021)

Target: the molecule itself
Experiment: SEC-MALS; purified recombinant PA2504 on a Superdex200 column with HELEOS light scattering instrument; 50 mM Tris-Cl pH 7.0, 300 mM NaCl, 0.5 mL/min

B1: His6-tagged PA2504, recombinant, purified from E. coli (plasmid pQE2504) (natural protein)
chain: MASWTLVDASAIAVRHPYTFYKPDAETIDRVAAGESVKLIFAFDTDNPDAPRAERLWVTVEGIEADGAFSGRLDNYPQYIRDLSLGERIVFEARHIINTEHDPRETPISRYARRCFVTRRVIDEGKAVGYLYREAPEEENDSGWRLMAGDESDDYMNTAGTTAYVSLGSVLNADDSILPLLDAPPGRAFERLADGSFIEVQGPEG
notes: PA2504, uncharacterised protein of Pseudomonas aeruginosa; the PA2504 gene without the start codon cloned into pQE-80L; Dimer by SEC-MALS; No removal of the tag is described; also called His6PA2504; recombinant PA2504 protein; source: E. coli BL21-DE3, purified (Ni-NTA)
B1 was tested, and the “stoichiometry N” value was 2.
